Assay results: paper PMC8455617 (2021)

Experiments:
[1] = biological target: Mitochondrial citrate synthase (CS) (UniProt P00889); assay: Microscale thermophoresis (MST), Monolith NT.115, nano-red excitation, MST power 40%, excitation power 80%; conditions: 23 °C, 0.1 M potassium phosphate, no further salt stated, 0.1 M potassium phosphate at pH 6, 7 or 8 (the same buffer species at all pH values)
[2] = biological target: T1, citrate synthase, mitochondrial (Sus scrofa, UniProt P00889); assay: MST
T1 chain: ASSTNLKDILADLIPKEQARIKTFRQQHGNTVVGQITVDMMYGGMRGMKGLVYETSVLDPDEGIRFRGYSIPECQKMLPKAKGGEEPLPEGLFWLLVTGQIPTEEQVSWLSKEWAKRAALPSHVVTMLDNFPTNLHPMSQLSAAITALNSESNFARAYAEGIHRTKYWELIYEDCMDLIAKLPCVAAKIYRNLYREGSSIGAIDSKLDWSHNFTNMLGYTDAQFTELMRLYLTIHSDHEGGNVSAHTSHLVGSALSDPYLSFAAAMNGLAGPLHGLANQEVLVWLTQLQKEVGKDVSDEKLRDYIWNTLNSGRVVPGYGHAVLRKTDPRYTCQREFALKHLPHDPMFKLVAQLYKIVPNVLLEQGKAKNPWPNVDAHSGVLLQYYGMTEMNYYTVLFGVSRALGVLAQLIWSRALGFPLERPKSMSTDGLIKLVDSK

[3] = biological target: T1, citrate synthase, mitochondrial; assay: MST (pH 7)
[4] = biological target: T1, citrate synthase, mitochondrial; assay: MST (pH 6)

Work on “Mitochondrial malate dehydrogenase (MDH), fluorescently labelled” yielded a Kd ([1]; pH 6) of 680 ± 50 nM, a Kd ([1]; pH 7) of 1600 ± 450 nM and a Kd ([1]; pH 8) of 2290 ± 460 nM.

B1: malate dehydrogenase, mitochondrial (protein)
chain: AKVAVLGASGGIGQPLSLLLKNSPLVSRLTLYDIAHTPGVAADLSHIETRATVKGYLGPEQLPDCLKGCDVVVIPAGVPRKPGMTRDDLFNTNATIVATLTAACAQHCPDAMICIISNPVNSTIPITAEVFKKHGVYNPNKIFGVTTLDIVRANAFVAELKGLDPARVSVPVIGGHAGKTIIPLISQCTPKVDFPQDQLSTLTGRIQEAGTEVVKAKAGAGSATLSMAYAGARFVFSLVDAMNGKEGVVECSFVKSQETDCPYFSTPLLLGKKGIEKNLGIGKISPFEEKMIAEAIPELKASIKKGEEFVKNMK
B1 was tested, and the Kd [2] was 2290 nM, the Kd [3] was 1600 nM and the Kd [4] was 680 nM.

B2: malate dehydrogenase, mitochondrial (protein)
chain: B1 chain
modifications: 10 mM acetyl-CoA
B2 showed a Kd [2] of 1100 nM.

B3: malate dehydrogenase, mitochondrial (protein)
chain: B1 chain
modifications: 10 mM fumarate
Work on B3 yielded a Kd [2] of 1580 nM.

B4: malate dehydrogenase, mitochondrial (protein)
chain: B1 chain
modifications: 10 mM NAD+
In the case of B4, the Kd [2] is reported as 890 nM.
